# B1: UDP-glucuronic acid 4-epimerase (BcUGAepi) (Bacillus cereus HuA2-4) (protein)
# chain: MKILVTGAAGFIGSHLCQALLKNSAYHVVGIDHFIGPTPATLKTGNIQSLELNSRFQFIREDILNTDLSKLLQDIDVVYHLAAIPGVRTSWGKDFQPYVTNNIMVTQQLLEACKHIKLDKFIHISTSSVYGEKSGAVSEDLLPIPLSPYGVTKLSGEHLCHVYHKNFHIPIVILRYFTVYGPRQRPDMAFHRLIKQMLEDKPLTIFGDGTQTRDFTYIDDCIRGTVAALETKKNIIGEVINIGGKEQASILDIISMLEKISGKSATKNFLKSVPGEPKQTWADISKASTLLQYSPTVSLSDGLEAEYDYIKQLYKGDAAWSHPQFEK
# Columns and labels:
# [1] = target: T1, BcUGAepi (UDP-glucuronic acid 4-epimerase) (Bacillus cereus group, UniProt Z9OZ01HDE8); experiment: HPLC of cofactor released from denatured enzyme; assay type: binding
# T1 construct: C-terminal Strep-tag kept; synthetic gene in pET17b; expressed in E. coli Lemo21(DE3); monomer 37003 g/mol
# [2] = system: BcUGAepi (UDP-glucuronic acid 4-epimerase); conditions: tightly bound cofactor of the isolated enzyme
# [3] = system: BcUGAepi (UDP-glucuronic acid 4-epimerase); conditions: 1 mM UDP-GlcA; 135 µM enzyme; 100 µM NAD+; pH 7.6; 23 °C
# [4] = system: O=C(O)[C@H]1O[C@H](OP(=O)(O)OP(=O)(O)OC[C@H]2O[C@@H](n3ccc(=O)[nH]c3=O)[C@H](O)[C@@H]2O)[C@H](O)[C@@H](O)[C@H]1O; experiment: purified protein; conditions: reverse epimerization, 50 µM NAD+, 50 mM sodium phosphate, 100 mM NaCl, pH 7.6, room temperature (23 °C)
# [5] = system: O=C(O)[C@H]1O[C@H](OP(=O)(O)OP(=O)(O)OC[C@H]2O[C@@H](n3ccc(=O)[nH]c3=O)[C@H](O)[C@@H]2O)[C@H](O)[C@@H](O)[C@@H]1O; experiment: purified protein; conditions: forward epimerization, 50 µM NAD+, 50 mM sodium phosphate, 100 mM NaCl, pH 7.6, room temperature (23 °C)
# Tyr149 = Tyr149 (UniProt position 149, TPQSPYGKSKL); experiment: kinetics; conditions: cited from earlier work
# [6] = target: UDP-glucuronic acid 4-epimerase from Bacillus cereus HuA2-4 (Bacillus cereus HuA2-4); experiment: SEC; gel filtration of the isolated protein (HiLoad 16/60 Superdex 200, calibrated with a gel filtration standard mixture); details in the Supporting information
# Tyr149 (position 149, …) = experiment: kinetics; conditions: 23 °C, 50 mM Na2HPO4, 100 mM NaCl, pH adjusted with NaOH or HCl, Enzyme-NAD+ with saturating UDP-GlcA (1 mM) and 100 µM added NAD+. The kcat profile reports on the enzyme/NAD+/UDP-GlcA complex.
molecule,measurement,setting,value
NC(=O)C1=CN([C@@H]2O[C@H](COP(=O)(O)OP(=O)(O)OC[C@H]3O[C@@H](n4cnc5c(N)ncnc54)[C@H](O)[C@@H]3O)[C@@H](O)[C@H]2O)C=CC1 [NADH],HPLC of cofactor released from denatured enzyme,[1]; minor co-purified reduced form of the bound cofactor,"NADH was also present, the content varying slightly"
NC(=O)c1ccc[n+]([C@@H]2O[C@H](COP(=O)(O)OP(=O)(O)OC[C@H]3O[C@@H](n4cnc5c(N)ncnc54)[C@H](O)[C@@H]3O)[C@@H](O)[C@H]2O)c1 [NAD^+],HPLC of cofactor released from denatured enzyme,"[1]; co-purified, tightly bound, one per subunit","we identified the cofactor as NAD, not NADP"
same,co-purified cofactor,[2],The purified Y149F variant (Fig. S19) contained protein‐bound NAD^+ as the wild‐type enzyme
O=C(O)[C@H]1O[C@H](OP(=O)(O)OP(=O)(O)OC[C@H]2O[C@@H](n3ccc(=O)[nH]c3=O)[C@H](O)[C@@H]2O)[C@H](O)[C@@H](O)[C@@H]1O [UDP-GlcA],HPLC time course of conversion,[3],the Y149F variant converted UDP‐GlcA into UDP‐GalA without trace formation of side products
BcUGAepi (UDP-glucuronic acid 4-epimerase) (Bacillus cereus group),Km,[4],890 ± 130 µM
same,kcat,[4],0.32 ± 0.02 s⁻¹
same,Km,[5],360 ± 20 µM
same,kcat,[5],0.25 ± 0.01 s⁻¹
UDP-galactose 4-epimerase (GALE) (Escherichia coli),pKa,Tyr149,6.9
UDP-glucuronic acid 4-epimerase from Bacillus cereus HuA2-4 (enzyme),stoichiometry N,[6],2
B1,pKa,"Tyr149 (position 149, …)",5.90 (±0.05)

# Source: PMC7984243, “Mechanistic characterization of UDP‐glucuronic acid 4‐epimerase” (The Febs Journal, 2020)
